According to patent US20220365100A1 (Janssen / Centocor, published 2022):

What was measured:
[1] = biological target: T1, recombinant IL-17 (human IL-17, interleukin 17A) (human, UniProt Q16552 24-155); assay: sandwich ELISA: AF-317 coated as capture, mAb4538 as detection, IL-17A titrated
T1 construct: Serial dilutions of recombinant IL-17 from 1 ng/ml in ELISA; also called IL-17A; CTLA8

[2] = biological target: T1, recombinant IL-17 (human IL-17, …); assay: competition in sandwich ELISA: IL-17A mixed with 10ug/ml modulator, free IL-17A detected with DuoSet DY317 (MAB317 capture, BAF317 detection)

T1 sequence (Q16552 24-155 limits assumed): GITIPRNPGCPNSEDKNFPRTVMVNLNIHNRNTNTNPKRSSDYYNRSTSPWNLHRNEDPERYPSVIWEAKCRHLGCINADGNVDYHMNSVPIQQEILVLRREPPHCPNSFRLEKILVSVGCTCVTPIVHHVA

Binder | binding result [1] | binding result [2]
mAb4538 (antibody, human IgG1, lambda, V domains shown, also called detection agent; anti-IL-17 antibody from Janssen Biotech, Inc) VH: QVQLQQSGPGLVKPSQTLSLTCAISGDSVSSSSAAWGWIRQSPSRGLEWLGRISYRSKWYNDYAVSVKSRITINPDTSKNQFSLQLNSVTPEDTAVYYCAREVDSMYYSYFDIWGQGTLVTVSS VL: EIVLTQSPATLSLSPGERATLSCRASQNVWAFYLAWYQQKPGQAPRLLIYGASNRATGIPARFSGSGSGTDFTLTISSLEPEDFAVYYCQQYRSTLSLTFGQGTKVEIKG | binds | 
mAb732 (antibody, human IgG1, lambda, V domains shown, also called LM modulator of IL-17) VH: QVQLQQSGPGLVKPSQTLSLTCAISGDSVSSSSAAWGWIRQSPSRGLEWLGRISYRSKWYNDYAVSVKSRITINPDTSKNQFSLQLNSVTPEDTAVYYCAREVDSMYYSYFDIWGQGTLVTVSS VL: EIVLTQSPATLSLSPGERATLSCRASQNVWAFYLAWYQQKPGQAPRLLIYGASNRATGIPARFSGSGSGTDFTLTISSLEPEDFAVYYCTQYYSSPSLTFGQGTKVEIKG |  | binds
mAb7024 (antibody, human IgG1, lambda, V domains shown, also called LM modulator of IL-17) VH: QVQLVQSGAEVKKPGSSVKVSCKASGGTFSSYAISWVRQAPGQGLEWMGSIIPWFGTTNYAQKFQGRVTITADESTSTAYMELSSLRSEDTAVYYCARDSEYYFDHWGQGTLVTVSS VL: DIQMTQSPSSVSASVGDRVTITCRASQGISNWLNWYQQKPGKAPKLLIYAASSLQSGVPSRFSGSGSGTDFTLTISSLQPEDFATYYCQQYSDDPTFGQGTKVEIKG |  | binds
